In publication PMC7022206:

Experiments:
[1] = molecular target: NLS-conjugated polymersome nanocarriers (bipartite nucleoplasmin NLS peptide on PMOXA-PDMS-PMOXA polymersomes); assay: dual-color fluorescence lifetime cross-correlation spectroscopy
[2] = molecular target: Cysteine-tagged FG domain of human Nup153 (human); assay: SPR

Kd [1]: < 0.4 nM
Kd [2]: 24.8 nM
Substance: Kapα•Kapβ1 (from UniProt P52292;Q14974) (complex)
